Measurements: publication PMC9482650, “Quantitative fragmentomics allow affinity mapping of interactomes” (Nature Communications, 2022)

Experiments:
Assay in all cases: holdup assay
Parameters in all cases: key: below the threshold = too weak to quantify, mostly under pKd 3.1 to 4
Settings in all cases: plain residues with an end cap or a label only (N-terminal biotin on a linker: ado-ado)
APBA2_1, Q99767 = biological target: T1, APBA2_1, Q99767
T1 sequence (Q99767 563-664, limits assumed, looked up): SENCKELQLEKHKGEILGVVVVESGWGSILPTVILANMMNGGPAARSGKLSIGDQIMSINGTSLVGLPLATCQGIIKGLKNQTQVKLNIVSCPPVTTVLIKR

APBA2_2, Q99767 = biological target: T2, APBA2_2, Q99767
T2 sequence (Q99767 654-744, limits assumed, looked up): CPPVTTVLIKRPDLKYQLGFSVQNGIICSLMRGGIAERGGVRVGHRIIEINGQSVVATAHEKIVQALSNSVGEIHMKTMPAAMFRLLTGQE

ARHGAP21, Q5T5U3 = biological target: T3, ARHGAP21, Q5T5U3
T3 sequence (Q5T5U3 45-169, limits assumed, looked up): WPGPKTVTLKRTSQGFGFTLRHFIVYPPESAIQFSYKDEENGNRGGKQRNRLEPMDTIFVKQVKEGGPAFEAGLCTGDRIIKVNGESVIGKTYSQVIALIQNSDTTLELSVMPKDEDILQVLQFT

DFNB31_2, Q9P202 = biological target: T4, DFNB31_2, Q9P202
T4 sequence (Q9P202 274-371, limits assumed, looked up): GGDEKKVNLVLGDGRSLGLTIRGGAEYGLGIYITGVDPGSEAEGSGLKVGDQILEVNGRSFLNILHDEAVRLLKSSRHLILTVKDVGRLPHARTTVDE

DLG1_2, Q12959 = biological target: DLG1_2, Q12959
Sequence of DLG1_2, Q12959 (Q12959 314-412): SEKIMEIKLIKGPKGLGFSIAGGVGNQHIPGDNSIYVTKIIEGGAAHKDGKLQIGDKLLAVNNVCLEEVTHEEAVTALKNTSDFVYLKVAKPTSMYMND

DLG1_3, Q12959 = biological target: DLG1_3, Q12959
Sequence of DLG1_3, Q12959 (Q12959 457-571): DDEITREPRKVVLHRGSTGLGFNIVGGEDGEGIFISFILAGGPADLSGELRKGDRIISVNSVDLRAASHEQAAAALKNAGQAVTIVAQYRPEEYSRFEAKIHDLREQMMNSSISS

DLG2_2, Q15700 = biological target: DLG2_2, Q15700
Sequence of DLG2_2, Q15700 (Q15700 189-283): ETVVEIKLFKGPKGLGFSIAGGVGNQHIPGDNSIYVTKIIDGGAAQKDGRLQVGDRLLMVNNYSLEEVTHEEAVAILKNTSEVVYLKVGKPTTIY

DLG3_1, Q92796 = biological target: T5, DLG3_1, Q92796
T5 sequence (Q92796 125-227, limits assumed, looked up): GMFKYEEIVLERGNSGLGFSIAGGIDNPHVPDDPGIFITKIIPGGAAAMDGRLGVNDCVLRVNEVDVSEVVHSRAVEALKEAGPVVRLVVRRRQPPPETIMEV

FRMPD2_1, Q68DX3 = biological target: FRMPD2_1, Q68DX3
Sequence of FRMPD2_1, Q68DX3 (Q68DX3 770-861): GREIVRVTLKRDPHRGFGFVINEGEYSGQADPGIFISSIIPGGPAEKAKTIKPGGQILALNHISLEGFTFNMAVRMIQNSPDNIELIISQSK

FRMPD4, Q14CM0 = biological target: FRMPD4, Q14CM0
Sequence of FRMPD4, Q14CM0 (Q14CM0 67-160): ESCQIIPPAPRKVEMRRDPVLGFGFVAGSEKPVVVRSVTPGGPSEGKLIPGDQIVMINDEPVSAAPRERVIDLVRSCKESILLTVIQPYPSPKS

GIPC2, Q8TF65 = biological target: GIPC2, Q8TF65
Sequence of GIPC2, Q8TF65 (Q8TF65 112-203): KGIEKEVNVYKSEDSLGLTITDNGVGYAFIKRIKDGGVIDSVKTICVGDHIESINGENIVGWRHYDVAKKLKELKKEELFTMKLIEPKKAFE

GRID2IP_1, A4D2P6 = biological target: GRID2IP_1, A4D2P6
Sequence of GRID2IP_1, A4D2P6 (A4D2P6 1-87): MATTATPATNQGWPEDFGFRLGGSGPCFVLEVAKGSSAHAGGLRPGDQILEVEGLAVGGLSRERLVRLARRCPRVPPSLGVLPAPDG

GRIP1_7, Q9Y3R0 = biological target: T6, GRIP1_7, Q9Y3R0
T6 sequence (Q9Y3R0 999-1096, limits assumed, looked up): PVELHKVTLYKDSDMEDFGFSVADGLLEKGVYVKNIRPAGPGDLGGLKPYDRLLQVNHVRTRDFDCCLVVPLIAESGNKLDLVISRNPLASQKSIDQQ

GRIP2_7, Q9C0E4 = biological target: GRIP2_7, Q9C0E4
Sequence of GRIP2_7, Q9C0E4 (Q9C0E4 934-1023): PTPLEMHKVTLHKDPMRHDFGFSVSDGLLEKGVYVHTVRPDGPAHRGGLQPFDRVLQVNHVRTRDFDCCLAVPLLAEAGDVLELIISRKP

HTRA2, O43464 = biological target: HTRA2, O43464
Sequence of HTRA2, O43464 (O43464 355-458): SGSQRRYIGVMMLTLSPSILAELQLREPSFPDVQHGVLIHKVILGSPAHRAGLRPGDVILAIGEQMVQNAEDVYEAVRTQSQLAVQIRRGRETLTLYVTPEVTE

IL16_4, Q14005 = biological target: IL16_4, Q14005
Sequence of IL16_4, Q14005 (Q14005 1229-1329): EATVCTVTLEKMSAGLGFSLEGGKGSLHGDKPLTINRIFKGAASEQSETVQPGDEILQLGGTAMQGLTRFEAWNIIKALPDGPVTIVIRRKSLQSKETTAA

Inadl_2, Q8NI35 = biological target: Inadl_2, Q8NI35
Sequence of Inadl_2, Q8NI35 (Q8NI35 238-335): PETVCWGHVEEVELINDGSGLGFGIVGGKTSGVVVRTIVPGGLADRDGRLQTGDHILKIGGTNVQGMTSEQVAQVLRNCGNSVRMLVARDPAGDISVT

Inadl_5, Q8NI35 = biological target: Inadl_5, Q8NI35
Sequence of Inadl_5, Q8NI35 (Q8NI35 673-780): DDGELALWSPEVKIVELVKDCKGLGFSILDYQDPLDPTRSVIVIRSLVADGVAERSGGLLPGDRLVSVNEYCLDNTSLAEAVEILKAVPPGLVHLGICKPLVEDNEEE

LRRC7, Q96NW7 = biological target: T7, LRRC7, Q96NW7
T7 sequence (Q96NW7 1440-1537, limits assumed, looked up): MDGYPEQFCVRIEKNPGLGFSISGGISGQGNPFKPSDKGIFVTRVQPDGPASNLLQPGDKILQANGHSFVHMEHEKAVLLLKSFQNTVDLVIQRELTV

MAGI2_2, Q86UL8 = biological target: MAGI2_2, Q86UL8
Sequence of MAGI2_2, Q86UL8 (Q86UL8 410-522): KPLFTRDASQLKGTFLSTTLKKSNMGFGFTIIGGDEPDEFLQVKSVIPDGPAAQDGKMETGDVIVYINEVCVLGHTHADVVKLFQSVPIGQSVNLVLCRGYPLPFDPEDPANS

MAGI2_3, Q86UL8 = biological target: MAGI2_3, Q86UL8
Sequence of MAGI2_3, Q86UL8 (Q86UL8 600-682): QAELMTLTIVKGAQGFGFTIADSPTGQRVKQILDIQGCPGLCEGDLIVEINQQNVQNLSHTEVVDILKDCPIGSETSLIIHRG

NHERF3_1, Q5T2W1 = biological target: T8, NHERF3_1, Q5T2W1
T8 sequence (Q5T2W1 4-100, limits assumed, looked up): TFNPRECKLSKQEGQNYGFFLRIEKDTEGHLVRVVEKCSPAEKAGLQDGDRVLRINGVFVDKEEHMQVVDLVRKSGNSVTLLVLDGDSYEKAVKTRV

NHERF3_3, Q5T2W1 = biological target: T9, NHERF3_3, Q5T2W1
T9 sequence (Q5T2W1 238-333, limits assumed, looked up): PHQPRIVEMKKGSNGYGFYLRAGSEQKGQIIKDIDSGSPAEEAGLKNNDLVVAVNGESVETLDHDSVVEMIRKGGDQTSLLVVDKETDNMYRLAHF

NHERF3_4, Q5T2W1 = biological target: T10, NHERF3_4, Q5T2W1
T10 sequence (Q5T2W1 373-468, limits assumed, looked up): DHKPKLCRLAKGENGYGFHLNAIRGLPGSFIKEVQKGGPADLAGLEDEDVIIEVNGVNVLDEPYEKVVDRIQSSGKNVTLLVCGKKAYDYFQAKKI

PTPN13_1, Q12923 = biological target: T11, PTPN13_1, Q12923
T11 sequence (Q12923 1088-1188, limits assumed, looked up): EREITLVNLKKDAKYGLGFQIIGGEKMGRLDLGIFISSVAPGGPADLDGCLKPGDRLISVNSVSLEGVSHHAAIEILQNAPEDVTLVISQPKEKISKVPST

SIPA1L2, Q9P2F8 = biological target: T12, SIPA1L2, Q9P2F8
T12 sequence (Q9P2F8 945-1036, limits assumed, looked up): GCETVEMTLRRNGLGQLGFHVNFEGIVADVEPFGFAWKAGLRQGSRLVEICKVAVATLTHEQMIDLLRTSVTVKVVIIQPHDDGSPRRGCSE

Binder | pKd (APBA2_1, Q99767) | pKd (APBA2_2, Q99767) | pKd (ARHGAP21, Q5T5U3) | pKd (DFNB31_2, Q9P202) | pKd (DLG1_2, Q12959) | pKd (DLG1_3, Q12959) | pKd (DLG2_2, Q15700) | pKd (DLG3_1, Q92796) | pKd (FRMPD2_1, Q68DX3) | pKd (FRMPD4, Q14CM0) | pKd (GIPC2, Q8TF65) | pKd (GRID2IP_1, A4D2P6) | pKd (GRIP1_7, Q9Y3R0) | pKd (GRIP2_7, Q9C0E4) | pKd (HTRA2, O43464) | pKd (IL16_4, Q14005) | pKd (Inadl_2, Q8NI35) | pKd (Inadl_5, Q8NI35) | pKd (LRRC7, Q96NW7) | pKd (MAGI2_2, Q86UL8) | also measured
FVFESRKEIL [TBPL1, P62380] | below the threshold | below the threshold | 3.83 | below the threshold | below the threshold | below the threshold | below the threshold | below the threshold | below the threshold | below the threshold | below the threshold | below the threshold | below the threshold | below the threshold | below the threshold | below the threshold | below the threshold | below the threshold | below the threshold | below the threshold | pKd (MAGI2_3, Q86UL8): below the threshold; pKd (NHERF3_1, Q5T2W1): below the threshold; pKd (NHERF3_3, Q5T2W1): below the threshold; pKd (NHERF3_4, Q5T2W1): below the threshold; pKd (PTPN13_1, Q12923): below the threshold; pKd (SIPA1L2, Q9P2F8): below the threshold
GTMFLRETSL [GUCY1A2, P33402] | below the threshold | below the threshold | 4.7 | 4.53 | 4.81 | 5.09 | 4.23 | below the threshold | below the threshold | 4.35 | 4 | below the threshold | below the threshold | 3.84 | below the threshold | 3.51 | below the threshold | below the threshold | 4.33 | 4.29 | pKd (MAGI2_3, Q86UL8): 3.71; pKd (NHERF3_1, Q5T2W1): 5.64; pKd (NHERF3_3, Q5T2W1): below the threshold; pKd (NHERF3_4, Q5T2W1): 4.38; pKd (PTPN13_1, Q12923): below the threshold; pKd (SIPA1L2, Q9P2F8): below the threshold
PLATCDETSI [SEMA4F, O95754] | below the threshold | below the threshold | below the threshold | below the threshold | 3.92 | below the threshold | below the threshold | below the threshold | below the threshold | below the threshold | 3.52 | below the threshold | below the threshold | below the threshold | below the threshold | below the threshold | below the threshold | below the threshold | below the threshold | below the threshold | pKd (MAGI2_3, Q86UL8): below the threshold; pKd (NHERF3_1, Q5T2W1): 3.74; pKd (NHERF3_3, Q5T2W1): below the threshold; pKd (NHERF3_4, Q5T2W1): below the threshold; pKd (PTPN13_1, Q12923): below the threshold; pKd (SIPA1L2, Q9P2F8): below the threshold
IKLETKKTKL [SLC15A2, Q16348] | 3.5 | 3.52 | 3.98 | 3.55 | below the threshold | 3.97 | 3.66 | 3.69 | below the threshold | below the threshold | below the threshold | below the threshold | below the threshold | below the threshold | 3.52 | 3.72 | below the threshold | 3.48 | below the threshold | 3.47 | pKd (MAGI2_3, Q86UL8): 3.6; pKd (NHERF3_1, Q5T2W1): 4.7; pKd (NHERF3_3, Q5T2W1): 4.67; pKd (NHERF3_4, Q5T2W1): 4.77; pKd (PTPN13_1, Q12923): 3.56; pKd (SIPA1L2, Q9P2F8): 3.62
